{"source": "paper PMC11594144", "key": {"[1]": {"target": "Vip3Aa64 protoxin, wild type (Bacillus thuringiensis)", "assay": "AUC"}, "[2]": {"target": "Vip3Aa64 protoxin, wild type (Bacillus thuringiensis)", "assay": "mass photometry"}}}
{"substance": "Vip3Aa64 protoxin, wild type (natural protein)", "values": [{"measurement": "stoichiometry N", "setting": "[1]", "value": 4}, {"measurement": "stoichiometry N", "setting": "[2]", "value": 4}]}
